In article PMC3701661, “The Serine Protease Domain of MASP-3: Enzymatic Properties and Crystal Structure in Complex with Ecotin” (PLoS ONE, 2013):

Legend:
[1] = biological target: T1, MASP-3 serine protease (SP) domain (human, UniProt P48740-2 450-728, three N-linked oligosaccharide chains comprising two N-acetylglucosamine and five mannose residues); assay: cell-based or functional assay
T1 sequence (looked up): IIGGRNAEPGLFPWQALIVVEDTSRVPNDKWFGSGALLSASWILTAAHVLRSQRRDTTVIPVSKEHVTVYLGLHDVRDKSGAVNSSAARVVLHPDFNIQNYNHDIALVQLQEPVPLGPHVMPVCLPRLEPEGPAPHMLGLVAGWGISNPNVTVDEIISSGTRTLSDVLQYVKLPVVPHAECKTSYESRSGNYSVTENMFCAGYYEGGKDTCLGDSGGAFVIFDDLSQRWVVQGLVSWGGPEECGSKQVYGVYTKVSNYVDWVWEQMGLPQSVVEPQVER

[2] = biological target: the molecule itself; assay: SEC; MASP-3 SP and ecotin preincubated 20 min at room temperature (equimolar, 225 pmol; also various molar ratios), TSK G3000 SW column in 145 mM NaCl, 50 mM triethanolamine-HCl, pH 7.4, 1 ml/min; peaks analysed by N-terminal sequencing and SDS-PAGE
[3] = biological target: T1, MASP-3 serine protease (SP) domain; assay: SPR; ecotin (1,000 RU) amine-coupled on a CM5 chip; proteases injected at 20 µl/min in 145 mM NaCl, 50 mM triethanolamine-HCl, pH 7.4, 0.005% surfactant P20; global fit to a 1:1 Langmuir model, at least five concentrations; apparent KD = kd/ka; conditions: both partners purified
[4] = biological target: T2, MASP-2 CCP1/2-ap-SP fragment (human, UniProt O00187 298-686); assay: as above; conditions: both partners purified
T2 construct: also called CCP1/2-ap-SP fragment of MASP-2; catalytic domain of MASP-2; source: baculovirus-infected insect cells, purified

[5] = biological target: T3, Coagulation factor XIa (human plasma) (human, UniProt P03951 19-387; P03951 388-625); assay: as above; conditions: both partners purified
T3 construct: coagulation factor XIa heavy chain, human plasma; coagulation factor XIa light chain (catalytic domain), human plasma; also called fXIa; source: bought: Calbiochem (human plasma)
T3 sequence (P03951 19-387, chain 1 of 2): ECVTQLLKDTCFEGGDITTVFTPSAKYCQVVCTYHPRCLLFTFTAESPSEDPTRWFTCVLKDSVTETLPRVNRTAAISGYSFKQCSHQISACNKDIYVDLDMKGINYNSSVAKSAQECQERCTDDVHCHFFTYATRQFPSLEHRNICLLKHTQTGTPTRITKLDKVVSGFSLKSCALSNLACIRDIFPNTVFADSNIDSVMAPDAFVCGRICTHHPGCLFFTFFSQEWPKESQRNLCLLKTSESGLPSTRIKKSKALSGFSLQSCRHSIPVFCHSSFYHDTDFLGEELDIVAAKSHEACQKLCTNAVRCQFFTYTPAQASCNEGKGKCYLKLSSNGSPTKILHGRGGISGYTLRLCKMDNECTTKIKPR
T3 sequence (P03951 388-625, chain 2 of 2): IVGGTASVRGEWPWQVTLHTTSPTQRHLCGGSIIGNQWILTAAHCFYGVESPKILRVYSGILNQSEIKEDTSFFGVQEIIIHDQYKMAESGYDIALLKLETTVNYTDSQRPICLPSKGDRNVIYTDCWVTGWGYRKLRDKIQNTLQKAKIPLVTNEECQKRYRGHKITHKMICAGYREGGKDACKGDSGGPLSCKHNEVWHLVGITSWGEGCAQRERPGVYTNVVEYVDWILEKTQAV

T2 sequence (O00187 298-686): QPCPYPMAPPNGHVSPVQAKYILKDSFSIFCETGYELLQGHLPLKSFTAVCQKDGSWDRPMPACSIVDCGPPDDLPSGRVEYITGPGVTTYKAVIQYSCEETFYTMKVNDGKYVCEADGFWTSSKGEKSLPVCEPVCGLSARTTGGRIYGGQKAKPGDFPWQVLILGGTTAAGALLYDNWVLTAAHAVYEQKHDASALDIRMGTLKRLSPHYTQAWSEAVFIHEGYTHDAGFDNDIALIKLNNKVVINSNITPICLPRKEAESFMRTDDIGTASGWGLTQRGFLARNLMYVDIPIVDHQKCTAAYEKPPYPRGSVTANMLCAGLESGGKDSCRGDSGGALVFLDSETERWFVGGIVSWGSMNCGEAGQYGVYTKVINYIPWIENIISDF

B1: Ecotin (E. coli pan-serine protease inhibitor) (natural protein)
chain: not shown
notes: residues numbered 1 onwards in the structure (P1 residue Met84); Homodimer (molecular mass 32 kDa as printed); also called ecotin dimer; source: bought: Gentaur Molecular Products
inhibition of FGR-AMC cleavage by the MASP-3 SP domain after incubation with ecotin at a 1:1 molar ratio [1]: 82%
stoichiometry N [2]: 2
Kd [3]: 601 nM
koff [3]: 0.000806 s⁻¹
kon [3]: 1340 M⁻¹ s⁻¹
Kd [4]: 24.7 nM
koff [4]: 0.00228 s⁻¹
kon [4]: 104000 M⁻¹ s⁻¹
Kd [5]: 1.38 nM
koff [5]: 0.000169 s⁻¹
kon [5]: 123000 M⁻¹ s⁻¹
